The series in a line: protein stability index of a GFP-peptide fusion (GPS, HEK-293T) (PSI 1-6); higher = more stable. The following applies: c terminus: a fixed tail appended.

In the supplement of paper PMC10567573 one finds protein stability index data, which are given here for 72 sequences.

± gives the standard deviation.
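Note: 24-mer peptide tiles fused after GFP, lentivirally expressed, FACS-sorted into six equal bins by GFP/DsRed ratio, decoded by Illumina sequencing, PSI is the read-weighted mean bin number.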

As to FRVFHCTQYVRHSSDPFYTPEPDT [TPH1], the protein stability index runs as follows: (treatment: DMSO) 2.15 ± 0.19; (treatment: MLN4924 1 uM, 8 h) 2.27 ± 0.35.
With AVQGLNLRSPNNFLSYYRLTRFLS [CCND1], the protein stability index (treatment: DMSO) worked out at 2.3 ± 0.18 and the protein stability index (treatment: MLN4924 1 uM, 8 h) was 2.36 ± 0.27.
On the same counts, the results for VYSLEPRLCGGKGGFGSMLRALGA [SDE2] are 2.24 ± 0.45 and 2.1 ± 0.081.
On the same counts, the results for QDLCCRTIVSCTPVHLVDKLPLPS [RAB40A] are 2.34 ± 0.26 and 2.39 ± 0.35.
For TFRQYCGAACTCHVRNPLSACSIM [RNF208], in that order: 2.21 ± 0.4 and 2.2 ± 0.27.
Consider KAELGALPHDFIDSLEKTDDDKYK [NLN], for which the protein stability index (treatment: DMSO) is 5.31 ± 0.2 and the protein stability index (treatment: MLN4924 1 uM, 8 h) was 5.2 ± 0.32.
For YVALFPCNECAKLIIQAGIKEVIF [DCTD], the protein stability index was determined as 2.73 ± 1.2 (treatment: DMSO) and 2.96 ± 0.54 (treatment: MLN4924 1 uM, 8 h).
Consider FDGTAHLSSVEAYNIRTDSWTTVT [KLHL12], for which the protein stability index reads like this: (treatment: DMSO) 2.58 ± 0.38; (treatment: MLN4924 1 uM, 8 h) 2.62 ± 0.52.
With SQWKDPALSQLICFCRESRYMDQW [GADD45A], the protein stability index runs as follows: (treatment: DMSO) 2.19 ± 0.19; (treatment: MLN4924 1 uM, 8 h) 2.31 ± 0.23.
For VVVKLLHPPSHWPLIKATVGLIRN [CTNNB1], in that order: 2.48 ± 0.66 and 2.51 ± 0.64.
For SLPETFGDFWRMIWEQRSATVVMM [PTPRD], in that order: 2.69 ± 0.7 and 2.43 ± 0.83.
For the sequence QTLQAMDSEDFPQAAKQIKDGVTM [FSD1], the protein stability index (treatment: DMSO) is 4.97 ± 0.26 and the protein stability index (treatment: MLN4924 1 uM, 8 h) turned out to be 5.04 ± 0.083.
On the same counts, the results for QEVTEPAVVAVDRQAIFPDTWTLT [PXN] are 4.06 ± 0.23 and 3.8 ± 0.36.
As for NSSEELSSALHLSKGMSIFLDILR [NECAB1], the protein stability index amounted to 2.38 ± 0.13 (treatment: DMSO) and 2.54 ± 0.21 (treatment: MLN4924 1 uM, 8 h).
For AEDLGNLWENTRFTDCSFFVRGQE [SPOPL], the protein stability index turned out to be 3.69 ± 0.32 (treatment: DMSO) and 3.74 ± 0.24 (treatment: MLN4924 1 uM, 8 h).
For IGPFGGFFASGFKRAFKIKDFANT [CDS2], in that order: 2.32 ± 0.27 and 2.15 ± 0.4.
On the same counts, the results for AAPAAGLCGAGSEPSIAPTSCAGN [RSPH3] are 4.55 ± 0.25 and 4.68 ± 0.26.
For AIAPFQSAGSPPELQGLPELHEEC [NET1], the protein stability index turned out to be 4.99 ± 0.33 (treatment: DMSO) and 4.85 ± 0.14 (treatment: MLN4924 1 uM, 8 h).
Regarding LRWERAWFPPAIMGVVSLVFLIIY [ARL6IP1], the protein stability index reads like this: (treatment: DMSO) 3.17 ± 0.1; (treatment: MLN4924 1 uM, 8 h) 3.08 ± 0.31.
On to LMRTCERLVKEGRFVPSNPIGILT [PPTC7], for which the protein stability index is, setting by setting: (treatment: DMSO) 2.65 ± 0.17; (treatment: MLN4924 1 uM, 8 h) 2.53 ± 0.23.
For GHNDWVMDVAISNNKKWILSASKD [WDR88], in that order: 3.19 ± 0.33 and 3.22 ± 0.59.
For VLFAVGGWCSGDAISSVERYDPQT [KLHL20], the protein stability index reads like this: (treatment: DMSO) 2.12 ± 0.21; (treatment: MLN4924 1 uM, 8 h) 2.29 ± 0.15.
Regarding LQWKSSHFERRDNMNDNFLEGEEE [CHGB], the protein stability index amounted to 5.36 ± 0.44 (treatment: DMSO) and 5.49 ± 0.23 (treatment: MLN4924 1 uM, 8 h).
In the case of IHFTLIQAFCCENDINILRVSNPG [GADD45A], the protein stability index (treatment: DMSO) was 3 ± 0.46 and the protein stability index (treatment: MLN4924 1 uM, 8 h) was 2.71 ± 0.45.
In the case of LQSELAGVADFSATYLRCQLLLIK [INTS4], the protein stability index was found to be 2.79 ± 0.46 (treatment: DMSO) and 2.57 ± 0.11 (treatment: MLN4924 1 uM, 8 h).
For ESGVSVSNSQPTNESHSIKAILKN [SLC29A1], in that order: 5.03 ± 0.53 and 4.9 ± 0.46.
As to ELLCELGRPSMVWLSANPCPHCGD [PRAME], the protein stability index came to 2.08 ± 0.043 (treatment: DMSO) and 2.28 ± 0.31 (treatment: MLN4924 1 uM, 8 h).
On the same counts, the results for QHTPDQANSDRASIGRRRTELRRS [PLEKHN1] are 4.95 ± 0.38 and 5.34 ± 0.19.
Consider FLEQRPQSPTLEFLLRNSQRTVGQ [EDARADD], for which the protein stability index runs as follows: (treatment: DMSO) 3.15 ± 0.32; (treatment: MLN4924 1 uM, 8 h) 3.43 ± 0.34.
For SVRRSESWARPRPDEERPLRRPRP [RASAL3], in that order: 4.92 ± 0.096 and 4.68 ± 0.29.
In the case of IIVNLLWFIHLVFVVLAFLTGVLC [TMEM192], the protein stability index is, setting by setting: (treatment: DMSO) 2.78 ± 0.58; (treatment: MLN4924 1 uM, 8 h) 2.3 ± 0.48.
For QVTAPGAPPLQAETPGSAVDYPLH [TNXB], in that order: 4.45 ± 0.087 and 5.292 ± 0.007.
With ADIDHDQALAQAIKEAKEQHPDMS [EPB41L3], the protein stability index was 5.56 ± 0.17 (treatment: DMSO) and 5.51 ± 0.31 (treatment: MLN4924 1 uM, 8 h).
For the sequence KGTSPSSKYVKLNVGGALYYTTMQ [KCTD10], the protein stability index is 2.28 ± 0.091 (treatment: DMSO) and 2.2 ± 0.14 (treatment: MLN4924 1 uM, 8 h).
For the sequence GPLGDQLHAQLRDLTSSSSDELSW [ELF3], the protein stability index came to 4.04 ± 0.047 (treatment: DMSO) and 4.18 ± 0.29 (treatment: MLN4924 1 uM, 8 h).
On the same counts, the results for TGTSNTTAIKSIEFARKGSCFLIN [RBBP5] are 2.42 ± 0.26 and 2.42 ± 0.22.
On to SEMECQNQEYKMLLDIKTRLEQEI [KRT13], for which the protein stability index worked out at 3.72 ± 0.26 (treatment: DMSO) and 3.82 ± 0.32 (treatment: MLN4924 1 uM, 8 h).
As for INHGAEVTCKDKKGYTPLHAAASN [ANKRD44], the protein stability index runs as follows: (treatment: DMSO) 4.23 ± 0.16; (treatment: MLN4924 1 uM, 8 h) 4.2 ± 0.24.
LLTTSPVFPHYIEKPLGRVGVFLD [TRIM43] registered a protein stability index (treatment: DMSO) of 2.08 ± 0.12 and a protein stability index (treatment: MLN4924 1 uM, 8 h) of 2.31 ± 0.25.
For MAVDKDTTNVGRYPVGRFPSLHVV [FEM1A], in that order: 2.67 ± 0.3 and 2.72 ± 0.34.
Regarding LGDALAGPPRAPGRSGWPAGGAPG [HES6], the protein stability index is, setting by setting: (treatment: DMSO) 3.88 ± 0.23; (treatment: MLN4924 1 uM, 8 h) 3.94 ± 0.44.
For SWVDDTPFNKVQSARFWIPGEPNN [CD207], in that order: 2.44 ± 0.15 and 2.51 ± 0.45.
For GCECEDGPDGQEMDPPNPEEVKTP [GAGE1], in that order: 5.48 ± 0.25 and 5.81 ± 0.14.
For PYKREEEALEERRLSRGEIPTLQR [PKD2L1], in that order: 4.76 ± 0.31 and 4.82 ± 0.27.
On to KVRSYVKRALAEGAQIWCGEGVDK [ALDH8A1], for which the protein stability index amounted to 2.77 ± 0.098 (treatment: DMSO) and 2.78 ± 0.29 (treatment: MLN4924 1 uM, 8 h).
With AYALPAGLSAPARCLVRCLLRREP [TRIB3], the protein stability index (treatment: DMSO) came out at 2.23 ± 0.49 and the protein stability index (treatment: MLN4924 1 uM, 8 h) is 1.87 ± 0.31.
For VQRTQSVPVRRPARRRQSAGPWPR [RASAL3], in that order: 4.55 ± 0.26 and 4.48 ± 0.096.
For EVEIVGVQEHARCVHPRGGVIQSV [C18orf25], in that order: 3.45 ± 0.35 and 3.6 ± 0.31.
Take LLTRKVICKSDAPTGDVLLDEALK [GOLPH3]: the protein stability index was 2.51 ± 0.25 (treatment: DMSO) and 2.91 ± 0.39 (treatment: MLN4924 1 uM, 8 h).
Take FNIVYIYTSELYPTVIRNVGLGTC [SLC22A15]: the protein stability index was found to be 3.07 ± 0.23 (treatment: DMSO) and 3.07 ± 0.62 (treatment: MLN4924 1 uM, 8 h).
With KLSPLRDRLVVTECQLTHSHPACP [ZSWIM9], the protein stability index (treatment: DMSO) is 3.56 ± 0.38 and the protein stability index (treatment: MLN4924 1 uM, 8 h) is 3.55 ± 0.27.
On the same counts, the results for SMQYNGSYFDRGAKGGSRLCTPEG [DFFB] are 2.98 ± 0.14 and 3.35 ± 0.35.
Turning to VVAVDRDSGQNAWLSYRLLKASEP [PCDHGA10], the protein stability index (treatment: DMSO) amounted to 2.56 ± 0.17 and the protein stability index (treatment: MLN4924 1 uM, 8 h) was found to be 2.6 ± 0.31.
Take YKDTCHELDELQLCKNCFYLSNAR [ZMYND11]: the protein stability index reads like this: (treatment: DMSO) 2.66 ± 0.31; (treatment: MLN4924 1 uM, 8 h) 3.02 ± 0.25.
With DSYIPLHEDLLTRIGEATKPDGTV [NET1], the protein stability index was 4.5 ± 0.43 (treatment: DMSO) and 4.73 ± 0.28 (treatment: MLN4924 1 uM, 8 h).
On the same counts, the results for ILDTAGTEQFTAMRDLYMKNGQGF [RAP1B] are 3.29 ± 0.36 and 3.46 ± 0.36.
As to FDTFIQKTKKLYIDSRARRNLGSI [SEC22B], the protein stability index came to 2.48 ± 0.5 (treatment: DMSO) and 2.22 ± 0.12 (treatment: MLN4924 1 uM, 8 h).
For DTGETSMLKRPVLLHLHQTAHADE [STEAP1], in that order: 4.63 ± 0.078 and 4.88 ± 0.18.
For the sequence YQGLPVRCVKSIIRQVLQGLDYLH [SRPK2], the protein stability index worked out at 2.45 ± 0.27 (treatment: DMSO) and 2.59 ± 0.41 (treatment: MLN4924 1 uM, 8 h).
On the same counts, the results for CNVKYKRWALLSCRGKKPSRIYGQ [KLHDC10] are 2.21 ± 0.42 and 2.22 ± 0.37.
In turn, SSVSDVKFSHSGRYMLTRDYLTVK [PPP2R2C] had a protein stability index (treatment: DMSO) of 2.88 ± 0.24 and a protein stability index (treatment: MLN4924 1 uM, 8 h) of 2.87 ± 0.39.
For HNSINQSLDESVIYGPGNLSTNNN [SLC2A12], in that order: 4.68 ± 0.34 and 4.7 ± 0.055.
For KCKKKITGEIMHALKMTWHVHCFT [PDLIM7], in that order: 2.81 ± 0.81 and 2.7 ± 0.12.
In the case of AQQLLCDEQAPQRQRLLADLLHNV [DFFB], the protein stability index by setting is: (treatment: DMSO) 3.98 ± 0.16; (treatment: MLN4924 1 uM, 8 h) 3.92 ± 0.24.
For RMSYGGSTCHAYSNTRDRYGRSWE [RBMY1A1], in that order: 2.62 ± 0.21 and 2.46 ± 0.099.
On the same counts, the results for GEREPFAETDEHTGANTKKPEDTA [FAM9B] are 5.46 ± 0.22 and 5.54 ± 0.52.
On the same counts, the results for QVLKKIAQKALDLPSSGEGLAFFT [HMOX1] are 2.57 ± 0.7 and 2.02 ± 0.41.
In turn, SRGELIPISPSTEVGGSGIGTPPS [MYBL2] showed a protein stability index (treatment: DMSO) of 4.74 ± 0.28 and a protein stability index (treatment: MLN4924 1 uM, 8 h) of 4.8 ± 0.15.
On the same counts, the results for YDGLDCQARQFRTFHHPTYGSCYT [SCNN1D] are 2.54 ± 0.1 and 2.59 ± 0.18.
As to GKSILLFGGAAAVAILAVAIGVAL [BCL2L13], the protein stability index is, setting by setting: (treatment: DMSO) 2.98 ± 0.057; (treatment: MLN4924 1 uM, 8 h) 2.87 ± 0.3.
In the case of TPYKPPAGRAAAPELSYRVCVGSD [MYORG], the protein stability index (treatment: DMSO) is 3.94 ± 0.24 and the protein stability index (treatment: MLN4924 1 uM, 8 h) came out at 4.13 ± 0.27.
For PAPASSTPQEPWPGPTAPSPTSRP [PDLIM7], in that order: 5.07 ± 0.093 and 5.13 ± 0.22.
